The values that follow come from publication PMC3785425.

The target of assay [1] is NKTT120 (human (humanized antibody)). The experiment in a line: SPR; Biacore 3000; NKTT120 immobilised on the chip; FcγRI, FcγRIIIa or C1q as analyte at six different concentrations; BiaEvaluation software.
Assay [2] shares this target.

NKTT120 (human (humanized antibody)), sequence (heavy, as listed by the source, chain 1 of 2): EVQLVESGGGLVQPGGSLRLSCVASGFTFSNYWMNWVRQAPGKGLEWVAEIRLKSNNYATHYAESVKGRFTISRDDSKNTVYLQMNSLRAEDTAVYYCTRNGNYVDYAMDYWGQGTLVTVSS
NKTT120 (human (humanized antibody)), sequence (light, as listed by the source, chain 2 of 2): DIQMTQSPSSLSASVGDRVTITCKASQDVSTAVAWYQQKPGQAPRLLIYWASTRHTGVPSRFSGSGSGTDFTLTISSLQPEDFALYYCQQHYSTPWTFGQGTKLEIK
FcγRIIIa, sequence (P08637 17-254): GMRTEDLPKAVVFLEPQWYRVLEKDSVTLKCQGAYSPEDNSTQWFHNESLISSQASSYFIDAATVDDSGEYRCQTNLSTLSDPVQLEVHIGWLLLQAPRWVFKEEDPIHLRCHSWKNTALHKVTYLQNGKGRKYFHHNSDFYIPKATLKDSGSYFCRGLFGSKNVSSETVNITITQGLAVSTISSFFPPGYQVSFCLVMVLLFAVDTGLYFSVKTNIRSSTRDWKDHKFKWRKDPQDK
FcγRI, sequence (P12314 16-374): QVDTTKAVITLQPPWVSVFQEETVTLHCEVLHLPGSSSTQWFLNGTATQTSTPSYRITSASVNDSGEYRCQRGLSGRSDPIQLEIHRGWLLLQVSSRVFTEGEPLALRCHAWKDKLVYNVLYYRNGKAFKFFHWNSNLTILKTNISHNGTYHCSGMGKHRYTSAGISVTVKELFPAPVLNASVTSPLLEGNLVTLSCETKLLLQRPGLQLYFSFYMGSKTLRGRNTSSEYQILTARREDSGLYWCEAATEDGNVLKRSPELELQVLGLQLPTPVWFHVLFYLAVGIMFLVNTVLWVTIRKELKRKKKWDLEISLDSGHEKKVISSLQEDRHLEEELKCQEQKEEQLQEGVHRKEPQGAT

Usually Kd stands for the concentration at which binding is half-saturated. Lower therefore signals higher affinity. In assay [1], “FcγRI (from UniProt P12314 16-374) (receptor)” showed a Kd of 12 nM.

“FcγRIIIa (from UniProt P08637 17-254) (receptor)” had an ADCC, cell killing of iTCR-expressing target cells by CD16-transduced NK-92 effector cells (E:T 60:1), NKTT120 at 1 and 20 µg/ml (34% to 44%) in assay [2] of 44%. In assay [1], this substance had a Kd of 122 nM.
